# B1: GST-CHK-2-3xFLAG (enzyme)
# chain: MVRGTKRRRSSAEKPIVVVPVTRDDTMPVDEDLVVGESQCAASKPFAKLVGVRRGISSIDLADDHFVCGRGSDDAPTNFNFSQVAKDVGLYRFISKIQFSIDRDTETRRIYLHDHSRNGTLVNQEMIGKGLSRELMNGDLISIGIPALIIFVYESADADHHPEELTKKYHVTSHSLGKGGFGKVLLGYKKSDRSVVAIKQLNTQFSTRCSRAIAKTRDIRNEVEVMKKLSHPNIVAIYDWITVAKYSYMVIEYVGGGEFFSKVVDSKYNRMGLGESLGKYFAFQLIDAILYLHSVGICHRDIKPENILCSDKAERCILKLTDFGMAKNSVNRMKTRCGTPSYNAPEIVANEGVEYTPKVDIWSLGCVLFITFSGYPPFSEEYTDMTMDEQVLTGRLIFHAQWRRITVETQNMIKWMLTVEPSNRPSAVELMSTQWMKCADCRTAKQDILKSIKPISAAAPAALQTTQAGPVKKAKM
# Target: MBP-PPM-1.D-10xHIS (C. elegans)
# Assay: pull-down
binder,measurement,value
B1,"fold CHK-2 pulled down, normalized, relative to truncated PPM-1.D",20 fold

# From publication doi:10.1101/2021.08.02.453806
